For two molecules, Kd results are on record in publication PMC13047697.

Experiment in all cases: native MS
The target in data set [1] is T1, SsoSSB WT (Saccharolobus solfataricus DSM 1617 …, UniProt Q97W73 1-148).
T1 sequence: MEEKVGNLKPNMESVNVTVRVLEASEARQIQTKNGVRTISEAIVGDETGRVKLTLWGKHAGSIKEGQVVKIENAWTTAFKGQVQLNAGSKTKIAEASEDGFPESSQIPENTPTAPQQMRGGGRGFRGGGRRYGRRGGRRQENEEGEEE

Data set [2] deals with T1, SsoSSB WT. This is another data set of the same source.
The target in data set [3] is T1, SsoSSB WT. The source holds these as a separate data set.
In data set [4] the target is T1, SsoSSB WT. The source holds these as a separate data set.

Where two headings read alike, the source gives them in different places.

As usually defined, the Kd is the concentration at which binding is half-saturated. Read a high Kd as weaker binding. As to TTTTTTTTTTTTTTT (ssDNA) [T15], the Kd in data set [1] was determined as 1240 nM; in data set [2] it was 1940 nM; in data set [3], 2080 nM; in data set [4], 1320 nM.

Consider TTTTTTTTTTTTTTTTTTTTTTTTTTTTTT (ssDNA) [T30], for which the Kd was determined as 253 nM in data set [1], 197 nM in data set [2], 209 nM in data set [3] and 266 nM in data set [4].
